Experimental data from publication PMC3464233, “Structural Basis of Differential Neutralization of DENV-1 Genotypes by an Antibody that Recognizes a Cryptic Epitope” (PLoS Pathogens, 2012).
Residue numbers refer to the chain shown, from its start.

T1: DENV-1 strain Western Pacific-74 E protein domain III (residues 293-399) (Dengue virus 1, strain Nauru/Western …, strain)
T1 chain: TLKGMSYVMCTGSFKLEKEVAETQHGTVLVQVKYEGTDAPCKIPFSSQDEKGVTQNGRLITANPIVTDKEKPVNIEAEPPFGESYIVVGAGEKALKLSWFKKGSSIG

T2: DENV-1 strain 16007 E protein domain III (residues 293-399) (Dengue virus 1, strain 16007 (genotype …, strain))
T2 construct: Dengue virus 1 strain 16007 (genotype 2), envelope (E) protein domain III, residues 293-399; untagged; also called 16007 DIII; DIII of 16007; source: BL21 bacterial cells (pET21a, autoinduction); inclusion bodies solubilized and oxidatively re-folded
T2 chain: T1 chain with S47T, V53A

B1: DENV1-E111 monoclonal antibody (antibody, V domains shown)
VH: QVQLLQPGAELVKPGASMKLSCKASGYTFTNWWMHWVRLRPGRGLEWIGRIDPNSDVNKYNEKFENRASLTVDKHSSTAYMQLSSLTSEDSAIYYCARWFFPWYFDVWGTGTTVTVSS
VL: NIVLTQSPASLAVSLGQRATISCRASESVDHYGNSFIYWYQQKPGQPPKLLIYLASNLESGVPARFSGSGSETDFTLTIDSVETDDAATYYCQQNNEDPYTFGGGTKLEIK
notes: also called E111 MAb; E111 IgG; source: E111 hybridoma
B2: E111 single-chain variable fragment (VL at the N-terminus) (scFv, V domains shown)
VH: B1 VH
VL: B1 VL
notes: E111 VL; as the VL of the light chain of m1; (GGGGS)3 linker; E111 VH; as the VH of the heavy chain of m1; The monomeric species was used for the structure; a second construct with VH first was also made but not used; also called E111 scFv

Assays:
[1] = target: DENV-1 strain 16007 E protein domain III (residues 293-399) (Dengue virus 1 (strain 16007, genotype 2))
[2] = target: DENV-1 strain TVP-2130 E protein domain III (Dengue virus 1 (strain TVP-2130, genotype 1))
[3] = target: DENV-1 strain 16007 E protein domain III (residues 293-399) (Dengue virus 1 (strain 16007, genotype 2)); remark: listed apart in the source
[4] = target: DENV1-E111 monoclonal antibody; test: SPR; Biacore T100; about 500 RU of E111 MAb or scFv amine-coupled to a Series S CM5 chip; two-fold dilution series of DIII variants injected 180 s, dissociation 1,000 s; 25°C; double referencing against WNV E16 MAb/scFv flow cell; 1:1 Langmuir fit
[5] = target: DENV1-E111 monoclonal antibody; test: not stated; half-life of binding of 16007 DIII K343I with E111; unpublished results
[6] = target: DENV-1 strain 3146 SL E protein domain III (Dengue virus 1 (strain 3146 SL, genotype 5))
[7] = target: DENV-1 strain TVP-5175 E protein domain III (Dengue virus 1 (strain TVP-5175, genotype 3))
[8] = target: DENV-1 strain 3146 SL E protein domain III (Dengue virus 1 (strain 3146 SL, genotype 5)); remark: listed apart in the source
[9] = target: DENV-1 West Pac-74 DIII V345A (Dengue virus 1 (strain Western Pacific-74, genotype 4))
[10] = target: T1, DENV-1 strain Western Pacific-74 E …; test: cell-based or functional assay
[11] = target: T1, DENV-1 strain Western Pacific-74 E …; test: SPR; Biacore T100; about 500 RU of E111 MAb or scFv amine-coupled to a Series S CM5 chip; two-fold dilution series of DIII variants injected 180 s, dissociation 1,000 s; 25°C; double referencing against WNV E16 MAb/scFv flow cell; 1:1 Langmuir fit; conditions: both partners purified
[12] = target: T1, DENV-1 strain Western Pacific-74 E …; test: as above; conditions: both partners purified
[13] = target: E111 single-chain variable fragment (VL at the N-terminus); test: SEC; E111 scFv after nickel affinity; two species resolved
[14] = target: T2, DENV-1 strain 16007 E protein domain …; test: SPR; Biacore T100; about 500 RU of E111 MAb or scFv amine-coupled to a Series S CM5 chip; two-fold dilution series of DIII variants injected 180 s, dissociation 1,000 s; 25°C; double referencing against WNV E16 MAb/scFv flow cell; 1:1 Langmuir fit; conditions: both partners purified

| Molecule | Kd [4] [nM] | koff [4] [s⁻¹] | kon [4] [M⁻¹ s⁻¹] | t1/2 [4] [min] | also measured |
| --- | --- | --- | --- | --- | --- |
| DENV1-E111 monoclonal antibody |  |  |  |  | PRNT50, plaque reduction neutralisation of DENV-1 16007 (genotype 2) on Vero cells [1]: 3.8 ng/mL; PRNT50, plaque reduction neutralisation of DENV-1 TVP-2130 (genotype 1) on Vero cells [2]: > 25000 ng/mL; EC50 of neutralisation of 16007 RVP after incubation with E111 at 37°C (1 to 22 h) or 40°C (to 4.5 h); fold increase in potency at 40°C for 4.5 h [3]: 3.5 fold |
| DENV-1 16007 DIII A345V (domain or fragment) | 1140 | 0.131 | 114000 | 0.0883 |  |
| DENV-1 16007 DIII A369T (domain or fragment) | 25.3 | 0.00383 | 151000 | 3.04 |  |
| DENV-1 16007 DIII D341N (domain or fragment) | 18.9 | 0.00402 | 213000 | 2.88 |  |
| DENV-1 16007 DIII K310E/T329E/K361T (domain or fragment) | 39.8 | 0.00457 | 121000 | 2.58 |  |
| DENV-1 16007 DIII K343I (domain or fragment) |  |  |  |  | t1/2 [5]: 45 min |
| DENV-1 16007 DIII L351V (domain or fragment) | 107 | 0.0237 | 211000 | 0.548 |  |
| DENV-1 16007 DIII T339S (domain or fragment) | 16.6 | 0.00313 | 191000 | 3.71 |  |
| DENV-1 16007 DIII V380I (domain or fragment) | 19 | 0.00236 | 124000 | 4.94 |  |
| DENV-1 strain 3146 SL E protein domain III (domain or fragment) | 523 | 0.142 | 267000 | 0.0917 |  |
| DENV-1 strain 16007 E protein domain III (residues 293-399) (domain or fragment) | 18 | 0.00356 | 198000 | 3.23 |  |
| DENV-1 strain TVP-5175 E protein domain III (domain or fragment) | 1980 | 0.312 | 162000 | 0.0367 |  |
| B1 |  |  |  |  | PRNT50, plaque reduction neutralisation of DENV-1 3146 SL (genotype 5) on Vero cells [6]: 21 ng/mL; PRNT50, plaque reduction neutralisation of DENV-1 TVP-5175 (genotype 3) on Vero cells [7]: > 25000 ng/mL; EC50, plaque reduction neutralisation of DENV-1 3146 SL (genotype 5) [8]: 0.022 µg/mL; neutralisation of V345A West Pac-74 RVP against wild-type West Pac-74 RVP, Raji-DC-SIGNR cells, fold enhancement [9]: 3.6 fold; EC50 of neutralisation of West Pac-74 RVP after incubation with E111 at 37°C (1 to 22 h) or 40°C (to 4.5 h); fold reduction at 40°C for 4.5 h [10]: 20 fold; Kd [11]: 415 ± 24 nM; Kd [12]: 416 nM; koff [12]: 0.106 s⁻¹; kon [12]: 256000 M⁻¹ s⁻¹; t1/2 [12]: 0.108 min |
| B2 |  |  |  |  | stoichiometry N [13]: 2; Kd [14]: 24.6 nM; koff [14]: 0.00695 s⁻¹; kon [14]: 288000 M⁻¹ s⁻¹; t1/2 [14]: 1.68 min; Kd [12]: 1830 nM; koff [12]: 0.275 s⁻¹; kon [12]: 151000 M⁻¹ s⁻¹; t1/2 [12]: 0.0422 min |
